Where no end group is shown, it is not given here.
What was measured:
[1] = system: human proximal tubular epithelial cells (HK-2); assay: Cell viability of proximal tubular epithelial cells (AlamarBlue); type: cell-based; settings: doses up to 500 nM
Source text: Endogenous (cellular) fibronectin assembly assay: This immunochemical assay measures the ECM incorporation of EDA-containing fibronectin synthesized by human fibroblasts and human proximal tubular epithelial cells. Human proximal epithelial cells, HK-2 cells, were obtained from ATCC (CRL-2190). The EDA+ fibronectin is a splice variant synthesized and secreted by a variety of cells mostly during embryonic development and during wound healing, ECM remodeling, or fibrotic conditions in the adult. […] Fluorescence of AlamarBlue® was read at 555 nm excitation and 585 nm emission. […] Similar to the measurement of exogenous A488-FN fluorescence, A488-EDA fluorescence was read using microplate reader equipped with bottom-readout capabilities at 485 nm excitation and 525 nm emission. Fluorescence of wells to which A488-IgG was added, i.e., background green fluorescence from non-specific IgG binding and from the cell monolayer was subtracted from fluorescence values of wells incubated with A488-EDA. Data is presented for fibronectin fibrillogenesis or cell viability as percent of fluorescence values (AlexaFluor® 488 fluorescence or AlamarBlue®, respectively) for wells with no peptides.

[2] = UUO kidney ECM fraction, s.c. approximately 12.5 mg/kg daily; extrapolated
Experimental: Unilateral Ureteral Obstruction model. Male C57BL/6 mice were purchased from Envigo (Madison, Wis.) and housed in the Wisconsin Institutes for Medical Research animal facilities at the University of Wisconsin-Madison with ad-libitum access to food and water. Animals were maintained in humidity and temperature-controlled rooms under 12 h light/dark cycles. All work was conducted under protocol M5421, reviewed and approved by the University of Wisconsin-Madison Institutional Animal Care and Use Committee. All efforts were made to minimize suffering. The Unilateral Ureteral Obstruction (UUO) model is a rodent surgical model representing a human equivalent of […]. Obstruction results in marked dilatation of the ureter together with reduced renal blood flow and glomerular filtration. […]
Tissue extraction and immunoblotting: Kidney tissues were fractionated as described in the art. […] Relative quantitation of specific blotted protein was performed by assessing band intensities using Image J and normalizing to bands obtained with rabbit anti-Histone 3 rabbit IgG (CellSignalTechnology, Danves, Mass., USA) or goat anti-GAPDH-HRP conjugated IgG (Genscript, Piscataway, N.J., USA), which were used as loading controls for ECM or lysate fractions, respectively.

FUD: 49 amino acid FUD peptide, SEQ ID NO: 1, recombinantly expressed, His-tag removed; inhibitor of fibronectin fibrillogenesis (KDQSPLAGESGETEYITEVYGNQQNPVDIDKKLPNETGFSGNMVETEDT; human) [reference compound]
human proximal tubular epithelial cell viability [1]: approximately 100%

PEG-FUD: PEGylated FUD prepared as in Example 1, PEG size not stated; approximately 27 kDa by mass spectrometry, likely the 20 kDa conjugate (KDQSPLAGESGETEYITEVYGNQQNPVDIDKKLPNETGFSGNMVETEDT; not fully specified (N-terminus); also: PEG size not given here)
PEG-FUD level in kidney [2]: ~50 ng per mg | human proximal tubular epithelial cell viability [1]: approximately 100%

Source: patent US10828372B2, “Compositions and methods for the inhibition of fibrosis” (WISCONSIN ALUMNI RESEARCH FOUNDATION, priority 2017, dated 2020)
